Measurements taken from PMC12880088.

Molecular target: T1, rYeiE (YeiE-Strep-tag II) (Salmonella enterica serotype Typhimurium ATCC14028s) (UniProt Q8ZNK8)
T1 sequence: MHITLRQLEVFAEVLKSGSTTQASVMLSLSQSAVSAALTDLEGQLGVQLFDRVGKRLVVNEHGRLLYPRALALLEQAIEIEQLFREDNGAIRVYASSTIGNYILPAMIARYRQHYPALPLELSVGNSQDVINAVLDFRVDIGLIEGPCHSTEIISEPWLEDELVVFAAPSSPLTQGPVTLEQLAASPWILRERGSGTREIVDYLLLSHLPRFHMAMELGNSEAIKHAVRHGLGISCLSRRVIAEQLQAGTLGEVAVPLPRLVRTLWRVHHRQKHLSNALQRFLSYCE
Assay: EMSA
Settings: 150 mM KCl, 0.1 mM DTT, 0.1 mM EDTA, 10 mM Tris pH 7.4, 20 min at room temperature; 6% native PAGE, SYBR Green

GTTGAACCGCTTTTCAGTACTTCAGCAAACACTTCAAGTTGTCGTAGCGTAATATGCATAGTCGTATCCCACCGATAGCGTTTCACTTACCACTTATAAAGATTAATTATAAATATATAATCAATTTTATTTTTAAACCAGATCACCGTAACCTTATTGTCCATATACAGGAGAAGGTTATGACAGAACTCACCTTGCAGAATCATCGTCGTACAATGTGGCATTTTATACCGGGGCTCGCTCTGAGCGCCGTCATTACAGGAGTCGCCCTGTGGGGCGGCGCTATCCCTGCCGTTGCA (double strand) [PyeiE]
binding: binds
